# Source: publication PMC9170038
# Molecular target: MS2 coat protein, dlFG mutant (Escherichia phage MS2, UniProt P03612, del68-81insG)
# Assay: 4 mM Mg2+; no ligand; RNA-MaP array; 100 mM Tris-HCl pH 7.5, 80 mM KCl, 4 mM MgCl2, 0.1 mg/mL BSA, 1 mM DTT, 0.01 mg/mL yeast tRNA, 0.01% Tween-20; protein 1.5 nM to 3 uM; 37 C (Table S3)
# Conditions: chain copies: 2; label: tethered by stalled RNA polymerase
row,Binder,Kd [µM]
1,Eterna 7741440 (Same State - Theophylline A) (ssRNA) RNA: GGAGUGAUGUUCCAUUUUUAAAUCUCCGAUACCAGUAUGGAAACAUACCCUUGGCAGCGGUAAACCGCAGAUUAGGAAACUAGUC,> 3
2,Eterna 7745160 (Same State - Arginine B) (ssRNA) RNA: GUUAAGUCGCGAAGGAGCGCGAACUAACAACGCAGUGAUGUUGCGUUGUACGUAGUAUAAUCGCAGGUAGGUCGCGCGACAGGCC,> 3
3,Eterna 7758792 (Exclusion - Tryptophan B) (ssRNA) RNA: UGAUACCAGACGGCCGCCACUCCCGUAAGUCAAAGACUUACGAAGAGGGUUUUUCAGUGAUGUUGGAGGACCGGGUCUGGUAUCU,> 3
4,Eterna 7734762 (Same State - FMN B) (ssRNA) RNA: UGUACCGAGUAAGGAUAUGUCGUCGAAAGACGAAAUGGAGUGAUGUUCCUUAAACUGCGAAAGCAGACAGAAGGUACUUGGUACU,> 3
5,Eterna 7696080 (Exclusion - Tryptophan B) (ssRNA) RNA: UGAUACCAGACGGCCGCCACUAGGACCGGGAGUGAUGUUCCCAAUUUAAAAUGCUCGGCCGCCACUAGGACCGGGUCUGGUAUCU,> 3
6,Eterna 7739457 (Exclusion - Theophylline B) (ssRNA) RNA: UUAUAUAUAUUAGAUACCAGUUUAAUGGAAACAAAUUAUGUUAUGAGUGAUGUUCAUGUAAGCCCUUGGCAGCUGGUAUGGGUUU,> 3
7,Eterna 7722704 (Same State - FMN A) (ssRNA) RNA: GGCAGUGAUGUUGCCUAAGCAACGCAUGCAGAGGAUAUUCGUUCGGGAAGAAGGCUGCAGCGUUCUCUCGUCAGUGAUGUUGGCG,> 3
8,Eterna 7739340 (Same State - Theophylline A) (ssRNA) RNA: ACCAUCAAAGAUGGCCAGGACUCAACUGAUACCAGAGUGGAGACACUCCCUUGGCAGCAGGUGAGUGAUGUUCACGAGUCCUGGA,> 3
9,Eterna 7673920 (Same State - Theophylline B) (ssRNA) RNA: UGUAUGUGAUCUGAUACCAGCGUUGAUAACCUGAGGAUCACCCUGGUAAGGCGAAAGCCACGCCCUUGGCAGCAGAUCGCAUACU,0.193
10,Eterna 7736465 (Same State - FMN A) (ssRNA) RNA: UUUCUUUUCUUUUGCGAUCCUAUCCCUUAUAAGGAUAUCUAGAAAUAGAGAAGGUAUGCAGUGAUGUUGCUUGGGAUAGGAUCGC,> 3
11,Eterna 1038 (Exclusion - FMN A) (ssRNA) RNA: UCACCGCCUAGUGAUGUUACGCGACUCAGAAAGGAUAUAAUCAAUCUUAGAAGGUUCACACCGUAUGGAUAUUAUCUAUCUCGUU,> 3
12,Eterna 7734716 (Exclusion - FMN B) (ssRNA) RNA: GGAUAGGACACAGGAUAUGGUAGUGAUGUUACCAAACUGGUUAAACAUGUCAGAAAACUGGCAUGACCAGAAGGGUGUCCUAUCG,> 3
13,Eterna 1619 (Same State - Theophylline A) (ssRNA) RNA: GUGUAAGUGAUGUUUGCACACACGUCGGAUACCAGAGACUUUAGCCUCCCUUGGCAGCCGCCGGCCAUAAGAGCAAGUCGAUUUA,> 3
14,Eterna 7730292 (Same State - Arginine B) (ssRNA) RNA: UGUAUGGACUGAAGGAGCGGAAAAUAAACCUGAGGAUCACCCGGGUAAUAGGCGAAAGCCAUCCAGGUAGGUCGCAGUCCAUACU,0.279
15,Eterna 7675501 (Same State - Theophylline B) (ssRNA) RNA: CCAUCGCUAUUCGAUACCAGUCAUAAAAUCUUUGGUUAAAUAAAGGAGUGAUGUUCCAAAGACCCUUGGCAGCGAAUAGUGAUGG,> 3
16,Eterna 7691377 (Same State - Tryptophan B) (ssRNA) RNA: UAUCUAUGCUCGGCCGCCACUAGGACCGGGAGGUAACUAGUGAUGUUAGUAUCUUCGGCCGCCACUAGGACCGGGAGUGUAGAUA,> 3
17,Eterna 7716400 (Same State - Theophylline B) (ssRNA) RNA: AUUUGUUUAUGUGAUACCAGACUAAGCAGUGAUGUUGCUUUUAUUUUUGAAUUUUAAAUAGUCCCUUGGCAGCACUAUGUCUGUA,> 3
